Laboratory results taken from article PMC11742385, “Selection and Characterization of a DNA Aptamer Recognizing High Mobility Group Box 1 Protein (HMGB1) and Enhancing Its Pro-inflammatory Activity”.

Legend:
rhHMGB1 A box = target: T1, rhHMGB1 A box (Homo sapiens, UniProt P09429 9-79); assay: microplate aptamer binding assay; dot blot; 1 mM Mg2+, 1 mM Ca2+; 5 nM aptamer (microplate); SHMCK: 20 mM Hepes, 120 mM NaCl, 5 mM KCl, 1 mM MgCl2, 1 mM CaCl2, pH 7.4, 37 C, 1 h; protein coated 2 pmol/well, 3% BSA block, PBST washes; details: protein: recombinant; tags: His tag implied (pET28a, Ni-NTA); predicted hairpin (9-50) and stem-loops (52-69) linked by a T
T1 sequence: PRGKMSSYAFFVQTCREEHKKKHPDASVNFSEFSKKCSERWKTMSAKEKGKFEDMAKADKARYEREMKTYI

rhHMGB2 = target: T2, rhHMGB2 (UniProt P26583 1-209); assay: microplate aptamer binding assay; 1 mM Mg2+, 1 mM Ca2+; 5 nM aptamer; SHMCK: 20 mM Hepes, 120 mM NaCl, 5 mM KCl, 1 mM MgCl2, 1 mM CaCl2, pH 7.4, 37 C, 1 h; protein coated 2 pmol/well, 3% BSA block, PBST washes; details: protein: commercial; predicted hairpin (9-50) and stem-loops (52-69) linked by a T
T2 sequence: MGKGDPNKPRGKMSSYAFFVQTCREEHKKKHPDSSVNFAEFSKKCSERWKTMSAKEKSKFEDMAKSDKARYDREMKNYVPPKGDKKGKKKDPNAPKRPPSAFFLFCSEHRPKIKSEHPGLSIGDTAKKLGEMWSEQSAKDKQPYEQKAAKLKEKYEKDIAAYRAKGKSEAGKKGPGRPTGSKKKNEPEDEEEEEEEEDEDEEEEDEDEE

rhHMGB1 = rhHMGB1 (Homo sapiens, UniProt P09429 1-215); assay: microplate aptamer binding assay (streptavidin-HRP); 1 mM Mg2+, 1 mM Ca2+; SHMCK: 20 mM Hepes, 120 mM NaCl, 5 mM KCl, 1 mM MgCl2, 1 mM CaCl2, pH 7.4, 37 C, 1 h; protein coated 2 pmol/well, 3% BSA block, PBST washes; details: protein: recombinant; tags: His tag implied (pET28a, Ni-NTA); predicted hairpin (9-50) and stem-loops (52-69) linked by a T
Sequence of rhHMGB1 (P09429 whole entry): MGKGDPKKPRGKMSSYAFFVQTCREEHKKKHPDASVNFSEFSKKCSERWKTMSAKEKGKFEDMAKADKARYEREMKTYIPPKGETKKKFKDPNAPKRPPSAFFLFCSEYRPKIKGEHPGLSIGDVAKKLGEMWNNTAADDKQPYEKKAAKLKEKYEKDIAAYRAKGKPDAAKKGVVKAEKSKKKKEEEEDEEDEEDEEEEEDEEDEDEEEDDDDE

B1: H-ap25 (structured_DNA)
DNA: GGACAAGAATCACCGCTCTGGGTTTGGCGTCGGGCCTGGCGAAAGGTGGTTGTGCGGAGAGAGCGTACAGGAGGCATACAG
rhHMGB1 A box
  binding result: no binding
rhHMGB2
  binding result: no binding
rhHMGB1
  Kd: 8.2 ± 0.53 nM
